Source: patent publication US20110289632A1, “METHYLKETONE SYNTHASE, PRODUCTION OF METHYLKETONES IN PLANTS AND BACTERIA” (The Regents of the University of Michigan, priority 2009, published 2011)

What was measured:
E. coli cells = experiment: GC-MS of methylketones in spent media of E. coli cells expressing ShMKS1, ShMKS2 or ShMKS2 (D79A); assay type: cell-based, Escherichia coli; details: with or without acid and heat treatment
Protocol: To test if expression of either ShMKS1 or ShMKS2 (without its transit peptide) in E. coli results in the formation of 3-ketoacids, we collected spent media of bacterial cells expressing each of them (by centrifuging out the cells at the end of the incubation period), heated the spent media at 75° C. for 30 min in the presence of 1 M sulfuric acid, extracted with hexane, then injected the hexane fraction in a GC-MS. […] On the other hand, the spent medium of E. coli cells expressing ShMKS2 contained 5.6±0.32 μg/μL of total methylketones, and the amount of methylketones increased […], to 40.7±2.1 μg/μL, after the spent medium was treated with acid and heat (FIG. 17).
The coding regions of ShMKS1 and ShMKS2 (minus the transit peptide-encoding region) were each amplified by PCR and inserted into the E. coli expression vector pEXP-TOPO-CT (Invitrogen). The expression vectors were introduced into E. coli BL21 Star (DE3) cells, and gene expression was induced by the addition of 0.5 mM IPTG after the culture optical density at 600 nm had reached 0.65. After induction with IPTG and growth at 18° C. overnight, the cells expressing ShMKS1 or ShMKS2 were centrifuged at 5000 rpm for 15 minutes, and 1-mL aliquots of the spent medium were placed in individual vials for further analysis. […]

[1] = Treatment of spent medium of ShMKS2-expressing E. coli with purified ShMKS1; assay type: biochemical; details: 3 μg/mL final concentration, incubated 2 h prior to hexane extraction
Protocol: Moreover, the treatment with purified ShMKS1 seemed to favor an increase in 2-tridecanone over other methylketones (FIG. 18).
Aliquots (1 mL) of the spent medium of E. coli expressing ShMKS2, obtained by centrifuging the culture solution after the incubation time at 5,000 rpm for 15 min and collecting the solution without the cells, were treated in the following ways: 1. Incubated with 40 μl (3 μg) of purified MKS1 in phosphate buffer (12.5 mM NaH2PO4, 125 mM NaCl, 2 mM DTT, pH 6.8) for 2 hrs at 30° C. 3. Incubated at 75° C. for 30 min followed by 30 min at 30° C. 4. Incubated with 1 mL of 2M H2SO4 at 75° C. for 30 min followed by 30 min at 30° C. After the various treatments, 1 mL of hexane containing 5 ng/μL linalool as an internal standard was added and the resulting mixture was vortexed and centrifuged at 5000 rpm for 10 min. Two μL of the resulting extract were injected into the GC-MS for determination of methylketones. GC-MS and product analysis were performed as described by Ben-Israel et al, (2009) Multiple biochemical and morphological factors underlie the production of methylketones in tomato trichomes, Plant Physiology 151: 1952-1964.

3-ketomyristoyl-ACP = experiment: In vitro thioesterase activity assay; assay type: biochemical
Protocol: To examine the potential thioesterase activity of ShMKS1 and ShMKS2 in vitro, we added 2.5 μg of each protein to a 500 μL solution of freshly prepared 3-ketomyristoyl-ACP. This protein-linked substrate was prepared using a sequential in vitro enzymatic system involving the addition of multiple starting materials and enzymes and the reaction allowed to proceed for 5 hr (see Examples, Materials, and Methods). Due to the highly unstable nature of 3-ketomyristoyl-ACP, this compound was not further purified but instead the solution in which it was synthesized was used as the “substrate solution” for qualitative in vitro thioesterase activity assays.
Aliquots of this substrate solution were incubated with buffer, ShMKS1, ShMKS2, or both ShMKS1 and ShMKS2 for 30 min at 23° C. […]
3-Ketomyristoyl-ACP was synthesized in a 500 μL reaction volume containing 1,3-bis(tris(hydroxymethyl)methylamino) propane (20 mM, pH 7.0), malonyl-CoA (0.2 mM), lauroyl-CoA (0.2 mM), ShACP (0.1 mM), EcFabD (10 μg) and MtFabH (10 μg). […] Hexane extracts were analyzed by GC-MS as described above. The values for heat-treated samples shown in FIG. 20 were corrected for loss of methylketones during the heating step, as determined by comparisons with standards.

B1: ShMKS1: methylketone synthase 1 from Solanum habrochaites glabratum (SEQ ID NO: 17); recombinant, 3-ketoacid decarboxylase (protein)
chain: MEKSMSPFVKKHFVLVHTAFHGAWCWYKIVALMRSSGHNVTALDLGASGINPKQALQIPNFSDYLSPLMEFMASLPANEKIILVGHALGGLAISKAMETFPEKISVAVFLSGLMPGPNIDATTVCTKAGSAVLGQLDNCVTYENGPTNPPTTLIAGPKFLATNVYHLSPIEDLALATALVRPLYLYLAEDISKEVVLSSKRYGSVKRVFIVATENDALKKEFLKLMIEKNPPDEVKEIEGSDHVTMMSKPQQLFTTLLSIANKYK
modifications: ShMKS1
notes: recombinant, 3-ketoacid decarboxylase
For B1, the “methylketones in spent medium” value (E. coli cells) was “no methylketones”, the “levels of extractable methylketones vs spent medium treated with phosphate buffer alone” value [1] was “significantly higher” and the “amount of 2-tridecanone vs buffer-incubated sample treated with acid and heat” value (3-ketomyristoyl-ACP; 2.5 μg protein, 30 min at 23° C., directly extracted with hexane) was “slightly higher, but not significantly so”. For the same molecule, the “in vitro thioesterase activity” value (3-ketomyristoyl-ACP; 3-ketomyristoyl-ACP substrate solution) was “little or no”.
